According to article doi:10.1101/2025.02.24.639257:
Like-named read-outs stand apart in the source and are kept apart here.

Assays:
Test in all cases: TIRF microscopy binding assay
[1] = molecular target: porcine double-stabilized microtubules (dsMTs) (porcine) (UniProt P02550)
[2] = molecular target: porcine double-stabilized microtubules (dsMTs) (porcine) (UniProt P02550); remark: listed apart in the source
[3] = molecular target: AspN-treated double-stabilized microtubules (β-tubulin C-tail removed) (porcine) (UniProt P02550)

Row | percent reduction of the fluorescence signal (against full-length TTLL11) [1] [%] | percent reduction of the fluorescence signal (against full-length TTLL11) [2] [%] | percent lower fluorescence signal than on intact MTs [3] [%] | Molecule
1 | 60 | – | – | human TTLL11 R601E mutant (from UniProt Q8NHH1 1-710) (enzyme)
2 | 80 | 95 | – | human TTLL11 I594W mutant (from UniProt Q8NHH1 1-710) (enzyme)
3 | – | – | 50 | human TTLL11 (tubulin tyrosine ligase-like 11), full length (enzyme, Janelia 549-HALO probe on the HALO tag (in the TIRF assay)) MRRGSSESELAARWEAEAVAAAKAAAKAEAEATAETVAEQVRVDAGAAGEPECKAGEEQPKVLAPAPAQPSAAEEGNTQVLQRPPPTLPPSKPKPVQGLCPHGKPRDKGRSCKRSSGHGSGENGSQRPVTVDSSKARTSLDALKISIRQLKWKEFPFGRRLPCDIYWHGVSFHDNDIFSGQVNKFPGMTEMVRKITLSRAVRTMQNLFPEEYNFYPRSWILPDEFQLFVAQVQMVKDDDPSWKPTFIVKPDGGCQGDGIYLIKDPSDIRLAGTLQSRPAVVQEYICKPLLIDKLKFDIRLYVLLKSLDPLEIYIAKDGLSRFCTEPYQEPTPKNLHRIFMHLTNYSLNIHSGNFIHSDSASTGSKRTFSSILCRLSSKGVDIKKVWSDIISVVIKTVIALTPELKVFYQSDIPTGRPGPTCFQILGFDILLMKNLKPILLEVNANPSMRIEHEHELSPGVFENVPSLVDEEVKVAVIRDTLRLMDPLKKKRENQSQQLEKPFAGKEDALDGELTSAPDCNANPEAHLPSICLKQVFPKYAKQFNYLRLVDRMANLFIRFLGIKGTMKLGPTGFRTFIRSCKLSSSSLSMAAVDILYIDITRRWNSMTLDQRDSGMCLQAFVEAFFFLAQRKFKMLPLHEQVASLIDLCEYHLSLLDEKRLVCGRGVPSGGRPPHRGPPQEPSPSAQPAGDNPPPRTSCANKLSHPRHTLS
